Test results reported in patent US5773001 (American Cyanamid Company, dated 1998).
Read-outs that look alike come from different tables or passages of the source.

How the values were obtained:
CD33 antigen (human) [1] = target: CD33 antigen (human) (UniProt P20138)
CD33 antigen (human) [2] = target: CD33 antigen (human) (UniProt P20138); test: competition with 125I-labelled native antibody on HEL 92.1.7 cells; IC50 (reference) / IC50 (sample)
CD33 antigen (human) [3] = target: CD33 antigen (human) (UniProt P20138); remark: listed apart in the source
CD33 antigen (human) [4] = target: CD33 antigen (human) (UniProt P20138); remark: listed apart in the source
CD33 antigen (human) [5] = target: CD33 antigen (human) (UniProt P20138); remark: listed apart in the source
CD33 antigen (human) [6] = target: CD33 antigen (human) (UniProt P20138); remark: listed apart in the source
CD33 antigen (human) [7] = target: CD33 antigen (human) (UniProt P20138); remark: listed apart in the source
CD33 antigen (human) [8] = target: CD33 antigen (human) (UniProt P20138); remark: listed apart in the source
CD33 antigen (human) [9] = target: CD33 antigen (human) (UniProt P20138); remark: listed apart in the source
[10] = target: polyepithelial mucin (PEM) antigen on cells (human) (UniProt P15941)
[11] = target: polyepithelial mucin (PEM) antigen on cells (human) (UniProt P15941); test: competition with 125I-labelled native antibody on A2780DDP cells; IC50 (reference) / IC50 (sample)
[12] = target: polyepithelial mucin (PEM) antigen on cells (human) (UniProt P15941); remark: listed apart in the source

Sequence of polyepithelial mucin (PEM) antigen on cells (human) (P15941 24-1255): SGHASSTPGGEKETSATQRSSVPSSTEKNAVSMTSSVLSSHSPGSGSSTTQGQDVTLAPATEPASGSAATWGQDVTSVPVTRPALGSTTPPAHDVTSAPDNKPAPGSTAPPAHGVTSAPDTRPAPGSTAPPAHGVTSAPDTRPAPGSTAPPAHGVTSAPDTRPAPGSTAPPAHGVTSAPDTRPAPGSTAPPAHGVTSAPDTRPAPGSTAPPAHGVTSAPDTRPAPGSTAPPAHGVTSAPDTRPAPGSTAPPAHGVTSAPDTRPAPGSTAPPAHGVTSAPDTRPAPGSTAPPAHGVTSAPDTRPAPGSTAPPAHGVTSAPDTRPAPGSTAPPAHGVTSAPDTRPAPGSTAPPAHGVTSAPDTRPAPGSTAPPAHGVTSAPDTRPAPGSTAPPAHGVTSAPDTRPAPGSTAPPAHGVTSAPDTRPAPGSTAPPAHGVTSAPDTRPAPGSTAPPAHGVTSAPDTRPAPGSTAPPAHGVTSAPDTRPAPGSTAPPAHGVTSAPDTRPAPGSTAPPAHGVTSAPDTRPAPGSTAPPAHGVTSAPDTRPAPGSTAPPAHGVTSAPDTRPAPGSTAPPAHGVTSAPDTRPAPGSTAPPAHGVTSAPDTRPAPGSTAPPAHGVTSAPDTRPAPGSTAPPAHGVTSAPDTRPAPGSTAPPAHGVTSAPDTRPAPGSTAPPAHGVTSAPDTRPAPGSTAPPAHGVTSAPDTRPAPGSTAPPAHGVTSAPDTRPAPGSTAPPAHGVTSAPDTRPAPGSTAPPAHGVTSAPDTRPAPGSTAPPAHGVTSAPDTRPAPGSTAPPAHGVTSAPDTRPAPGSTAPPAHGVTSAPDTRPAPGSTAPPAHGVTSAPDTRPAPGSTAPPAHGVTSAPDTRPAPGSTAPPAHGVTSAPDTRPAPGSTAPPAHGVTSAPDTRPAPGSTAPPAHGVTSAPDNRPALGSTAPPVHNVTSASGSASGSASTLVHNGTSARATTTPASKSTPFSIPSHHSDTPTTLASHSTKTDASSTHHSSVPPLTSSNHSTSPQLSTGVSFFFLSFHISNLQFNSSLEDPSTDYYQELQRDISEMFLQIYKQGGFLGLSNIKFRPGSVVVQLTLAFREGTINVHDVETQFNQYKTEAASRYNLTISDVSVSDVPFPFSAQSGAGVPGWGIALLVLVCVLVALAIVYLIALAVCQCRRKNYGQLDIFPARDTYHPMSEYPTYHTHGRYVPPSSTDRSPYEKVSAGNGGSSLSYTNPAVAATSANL

B1: Conjugate of 11-(4-acetylphenoxy)undecanoic acid (23) condensed with Calicheamicin N-acetyl gamma dimethyl hydrazide and h-P67.6 (antibody, V domains shown)
VH: EVQLVQSGAEVKKPGSSVKVSCKASGYTITDSNIHWVRQAPGQSLEWIGYIYPYNGGTDYNQKFKNRATLTVDNPTNTAYMELSSLRSEDTDFYYCVNGNPWLAYWGQGTLVTVSS
VL: DIQLTQSPSTLSASVGDRVTITCRASESLDNYGIRFLTWFQQKPGKAPKLLMYAASNQGSGVPSRFSGSGSGTEFTLTISSLQPDDFATYYCQQTKEVPWSFGQGTKVEVKR
modifications: drug-linker amide on lysine side chains, sites not stated; drug-linker amide on lysine side chains, sites not stated
In the case of B1, the In vitro IC50 (3H-thymidine incorporation) (CD33 antigen (human) [1]) is reported as 0.43 ng/mL and the Rel. Affinity (CD33 antigen (human) [2]) is reported as 0.8.

B2: Conjugate of 4-(2-chloro-4-formylphenoxy)butanoic acid (25) condensed with Calicheamicin N-acetyl gamma dimethyl hydrazide and h-P67.6 (antibody, V domains shown)
VH: EVQLVQSGAEVKKPGSSVKVSCKASGYTITDSNIHWVRQAPGQSLEWIGYIYPYNGGTDYNQKFKNRATLTVDNPTNTAYMELSSLRSEDTDFYYCVNGNPWLAYWGQGTLVTVSS
VL: DIQLTQSPSTLSASVGDRVTITCRASESLDNYGIRFLTWFQQKPGKAPKLLMYAASNQGSGVPSRFSGSGSGTEFTLTISSLQPDDFATYYCQQTKEVPWSFGQGTKVEVKR
modifications: drug-linker amide on lysine side chains, sites not stated; drug-linker amide on lysine side chains, sites not stated
B2 showed an In vitro IC50 (3H-thymidine incorporation) (CD33 antigen (human) [3]) of 0.0071 ng/mL and a Rel. Affinity (CD33 antigen (human) [2]) of 0.31.

B3: Conjugate of 4-(4-formyl-2-nitrophenoxy)butanoic acid (27) condensed with Calicheamicin N-acetyl gamma dimethyl hydrazide and h-P67.6 (antibody, V domains shown)
VH: EVQLVQSGAEVKKPGSSVKVSCKASGYTITDSNIHWVRQAPGQSLEWIGYIYPYNGGTDYNQKFKNRATLTVDNPTNTAYMELSSLRSEDTDFYYCVNGNPWLAYWGQGTLVTVSS
VL: DIQLTQSPSTLSASVGDRVTITCRASESLDNYGIRFLTWFQQKPGKAPKLLMYAASNQGSGVPSRFSGSGSGTEFTLTISSLQPDDFATYYCQQTKEVPWSFGQGTKVEVKR
modifications: drug-linker amide on lysine side chains, sites not stated; drug-linker amide on lysine side chains, sites not stated
Binder B3 has an In vitro IC50 (3H-thymidine incorporation) (CD33 antigen (human) [4]) of 0.023 ng/mL and a Rel. Affinity (CD33 antigen (human) [2]) of 1.3.

B4: Conjugate of 4-2-(4-acetylphenyl)amino!methyl!-6-methoxyphenoxy!butanoic acid (28) condensed with Calicheamicin N-acetyl gamma dimethyl hydrazide and h-P67.6 (antibody, V domains shown)
VH: EVQLVQSGAEVKKPGSSVKVSCKASGYTITDSNIHWVRQAPGQSLEWIGYIYPYNGGTDYNQKFKNRATLTVDNPTNTAYMELSSLRSEDTDFYYCVNGNPWLAYWGQGTLVTVSS
VL: DIQLTQSPSTLSASVGDRVTITCRASESLDNYGIRFLTWFQQKPGKAPKLLMYAASNQGSGVPSRFSGSGSGTEFTLTISSLQPDDFATYYCQQTKEVPWSFGQGTKVEVKR
modifications: drug-linker amide on lysine side chains, sites not stated; drug-linker amide on lysine side chains, sites not stated
With B4 the Rel. Affinity (CD33 antigen (human) [2]) was 0.85 and the In vitro IC50 (3H-thymidine incorporation) (CD33 antigen (human) [5]) was less than 0.005 ng/mL.

B5: Conjugate of 4-(4-acetyl-3-fluorophenoxy)butanoic acid (30) condensed with Calicheamicin N-acetyl gamma dimethyl hydrazide and h-P67.6 (antibody, V domains shown)
VH: EVQLVQSGAEVKKPGSSVKVSCKASGYTITDSNIHWVRQAPGQSLEWIGYIYPYNGGTDYNQKFKNRATLTVDNPTNTAYMELSSLRSEDTDFYYCVNGNPWLAYWGQGTLVTVSS
VL: DIQLTQSPSTLSASVGDRVTITCRASESLDNYGIRFLTWFQQKPGKAPKLLMYAASNQGSGVPSRFSGSGSGTEFTLTISSLQPDDFATYYCQQTKEVPWSFGQGTKVEVKR
modifications: drug-linker amide on lysine side chains, sites not stated; drug-linker amide on lysine side chains, sites not stated
With B5 the In vitro IC50 (3H-thymidine incorporation) (CD33 antigen (human) [6]) was 0.005 ng/mL and the Rel. Affinity (CD33 antigen (human) [2]) was 1.01.

B6: Conjugate of 4-(2-Acetylphenoxy)butanoic acid (31) condensed with Calicheamicin N-acetyl gamma dimethyl hydrazide and h-P67.6 (antibody, V domains shown)
VH: EVQLVQSGAEVKKPGSSVKVSCKASGYTITDSNIHWVRQAPGQSLEWIGYIYPYNGGTDYNQKFKNRATLTVDNPTNTAYMELSSLRSEDTDFYYCVNGNPWLAYWGQGTLVTVSS
VL: DIQLTQSPSTLSASVGDRVTITCRASESLDNYGIRFLTWFQQKPGKAPKLLMYAASNQGSGVPSRFSGSGSGTEFTLTISSLQPDDFATYYCQQTKEVPWSFGQGTKVEVKR
modifications: drug-linker amide on lysine side chains, sites not stated; drug-linker amide on lysine side chains, sites not stated
In the case of B6, the In vitro IC50 (3H-thymidine incorporation) (CD33 antigen (human) [7]) is reported as less than 0.005 ng/mL and the Rel. Affinity (CD33 antigen (human) [2]) is reported as 0.95.

B7: Conjugate of 2-acetyl-10H-phenothiazine-10-hexanoic acid (32) condensed with Calicheamicin N-acetyl gamma dimethyl hydrazide and h-P67.6 (antibody, V domains shown)
VH: EVQLVQSGAEVKKPGSSVKVSCKASGYTITDSNIHWVRQAPGQSLEWIGYIYPYNGGTDYNQKFKNRATLTVDNPTNTAYMELSSLRSEDTDFYYCVNGNPWLAYWGQGTLVTVSS
VL: DIQLTQSPSTLSASVGDRVTITCRASESLDNYGIRFLTWFQQKPGKAPKLLMYAASNQGSGVPSRFSGSGSGTEFTLTISSLQPDDFATYYCQQTKEVPWSFGQGTKVEVKR
modifications: drug-linker amide on lysine side chains, sites not stated; drug-linker amide on lysine side chains, sites not stated
Work on B7 yielded an In vitro IC50 (3H-thymidine incorporation) (CD33 antigen (human) [8]) of 0.021 ng/mL and a Rel. Affinity (CD33 antigen (human) [2]) of 1.25.

B8: Conjugate of 4-acetylphenylacetic acid (33) condensed with Calicheamicin N-acetyl gamma dimethyl hydrazide and h-P67.6 (antibody, V domains shown)
VH: EVQLVQSGAEVKKPGSSVKVSCKASGYTITDSNIHWVRQAPGQSLEWIGYIYPYNGGTDYNQKFKNRATLTVDNPTNTAYMELSSLRSEDTDFYYCVNGNPWLAYWGQGTLVTVSS
VL: DIQLTQSPSTLSASVGDRVTITCRASESLDNYGIRFLTWFQQKPGKAPKLLMYAASNQGSGVPSRFSGSGSGTEFTLTISSLQPDDFATYYCQQTKEVPWSFGQGTKVEVKR
modifications: drug-linker amide on lysine side chains, sites not stated; drug-linker amide on lysine side chains, sites not stated
B8 showed an In vitro IC50 (3H-thymidine incorporation) (CD33 antigen (human) [9]) of less than 0.005 ng/mL and a Rel. Affinity (CD33 antigen (human) [2]) of 0.91.

B9: Conjugate of 4-formylphenoxyacetic acid (1) condensed with Calicheamicin N-acetyl gamma dimethyl hydrazide and m-CT-M-01 (antibody, V domains shown)
VH: QIQLQQSGPELVKPGASVKISCKASGYTFTDYYINWMKQKPGQGLEWIGWIDPGSGNTKYNEKFKGKATLTVDTSSSTAYMQLSSLTSEDTAVYFCAREKTTYYYAMDYWGQGTSVTVSA
VL: DIVMTQAAPSVPVTPGESLSISCRSSKSLLHSNGDTFLYWFLQRPGQSPQLLIYRMSNLASGVPDRFSGSGSGTAFTLRVSRVEAEDVGVYYCMQHLEYPFTFGAGTKLELKR
modifications: drug-linker amide on lysine side chains, sites not stated; drug-linker amide on lysine side chains, sites not stated
For B9, the In vitro IC50 (3H-thymidine incorporation) [10] was 1.5 ng/mL and the Rel. Affinity [11] was 0.84.

B10: Conjugate of 4-formylbenzoic acid (2) condensed with Calicheamicin N-acetyl gamma dimethyl hydrazide and m-CT-M-01 (antibody, V domains shown)
VH: QIQLQQSGPELVKPGASVKISCKASGYTFTDYYINWMKQKPGQGLEWIGWIDPGSGNTKYNEKFKGKATLTVDTSSSTAYMQLSSLTSEDTAVYFCAREKTTYYYAMDYWGQGTSVTVSA
VL: DIVMTQAAPSVPVTPGESLSISCRSSKSLLHSNGDTFLYWFLQRPGQSPQLLIYRMSNLASGVPDRFSGSGSGTAFTLRVSRVEAEDVGVYYCMQHLEYPFTFGAGTKLELKR
modifications: drug-linker amide on lysine side chains, sites not stated; drug-linker amide on lysine side chains, sites not stated
Binder B10 has an In vitro IC50 (3H-thymidine incorporation) [12] of 5.6 ng/mL and a Rel. Affinity [11] of 0.9.
